These results are taken from the supplement of paper PMC6757056.

The labels stand for the following.
B1: library; a variant is named by its letters at N, in order (parent)
chain: GCUGUCACCGGUGUAUUACCCUAGUGGUCGACCGGUCUGAUGAGUCUNNNNNNAGACGAAACAGC

Variants of B1 are the subject of data set [1]. Nature of the data set: normalized RNA/DNA level with ligand (relative to sTRSVctl = 100) (log10 (% of sTRSVctl)); ligand: hypoxanthine (xanthine aptamer); higher = less ribozyme self-cleavage, higher mRNA level. The following applies: ligand concentration (+) RNA-Seq: 5 mM, HEK293T, reporter: mCherry (pCS4076), ligand present: yes. In outline:
(§1)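 Ribozyme switch library plasmids with mCherry reporters (eGFP in certain ligand experiments) went into HEK293T cells at 4 µg per 6-well well. Where ligand was used, it was applied 1 h before transfection, and total RNA was extracted with EDTA 72 h later for reverse transcription, amplification, barcoding and sequencing. RNA level is the RNA-to-DNA read ratio normalized to a spiked-in non-cleaving sequence or to the leading sequences, then scaled and log-transformed. Scaling was ×100 with log10, the leading set comprised 25 sequences, and the cutoff was ≥100 DNA reads.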

The variants in data set [2] derive from B1. As to the kind of experiment: normalized RNA/DNA level without ligand (relative to sTRSVctl = 100) (log10 (% of sTRSVctl)); ligand: hypoxanthine (xanthine aptamer); higher = less ribozyme self-cleavage, higher mRNA level. The settings on record: HEK293T, reporter: mCherry (pCS4076), ligand present: no. The method, boiled down: as §1

± gives the standard deviation of the averaged measurements.

For the variant GCUGUCACCGGUGUAUUACCCUAGUGGUCGACCGGUCUGAUGAGUCUCUGAAUAGACGAAACAGC, the “normalized RNA/DNA level with ligand (log10)” value in data set [1] worked out at 1.93 ± 0.062. Moreover, the “normalized RNA/DNA level without ligand (log10)” value in data set [2] was determined as 1.74 ± 0.062.
The corresponding values for GCUGUCACCGGUGUAUUACCCUAGUGGUCGACCGGUCUGAUGAGUCUCUGAACAGACGAAACAGC are 1.9 ± 0.066 and 1.76 ± 0.019.
The like results for GCUGUCACCGGUGUAUUACCCUAGUGGUCGACCGGUCUGAUGAGUCUUUGAAUAGACGAAACAGC were, in that order, 1.95 ± 0.03 and 1.8 ± 0.031.
The like results for GCUGUCACCGGUGUAUUACCCUAGUGGUCGACCGGUCUGAUGAGUCUUUGAACAGACGAAACAGC were, in that order, 1.92 ± 0.052 and 1.855 ± 0.01.
With GCUGUCACCGGUGUAUUACCCUAGUGGUCGACCGGUCUGAUGAGUCUGUGACCAGACGAAACAGC, the “normalized RNA/DNA level with ligand (log10)” value in data set [1] was found to be 1.931 ± 0.012. The “normalized RNA/DNA level without ligand (log10)” value in data set [2] came to 1.74 ± 0.019.
On to GCUGUCACCGGUGUAUUACCCUAGUGGUCGACCGGUCUGAUGAGUCUGUGACAAGACGAAACAGC, for which the “normalized RNA/DNA level with ligand (log10)” value in data set [1] is 1.9 ± 0.04. Besides, in data set [2], the “normalized RNA/DNA level without ligand (log10)” value was found to be 1.78 ± 0.033.
With GCUGUCACCGGUGUAUUACCCUAGUGGUCGACCGGUCUGAUGAGUCUGUGAACAGACGAAACAGC, the “normalized RNA/DNA level with ligand (log10)” value in data set [1] amounted to 1.9 ± 0.024. The “normalized RNA/DNA level without ligand (log10)” value in data set [2] amounted to 1.57 ± 0.046.
As to GCUGUCACCGGUGUAUUACCCUAGUGGUCGACCGGUCUGAUGAGUCUGUGAAAAGACGAAACAGC, the “normalized RNA/DNA level with ligand (log10)” value in data set [1] is 1.895 ± 0.016. For the same variant, the “normalized RNA/DNA level without ligand (log10)” value in data set [2] was 1.66 ± 0.027.
The corresponding values for GCUGUCACCGGUGUAUUACCCUAGUGGUCGACCGGUCUGAUGAGUCUGUGAAUAGACGAAACAGC are 1.9 ± 0.024 and 1.7 ± 0.052.
The like results for GCUGUCACCGGUGUAUUACCCUAGUGGUCGACCGGUCUGAUGAGUCUUUCUUGAGACGAAACAGC were, in that order, 1.92 ± 0.068 and 1.794 ± 0.016.
As for GCUGUCACCGGUGUAUUACCCUAGUGGUCGACCGGUCUGAUGAGUCUUUCUUUAGACGAAACAGC, the “normalized RNA/DNA level with ligand (log10)” value in data set [1] was determined as 1.927 ± 0.013. Further, in data set [2], the “normalized RNA/DNA level without ligand (log10)” value amounted to 1.98 ± 0.034.
Consider GCUGUCACCGGUGUAUUACCCUAGUGGUCGACCGGUCUGAUGAGUCUUUCUUCAGACGAAACAGC, for which the “normalized RNA/DNA level with ligand (log10)” value in data set [1] is 2.01 ± 0.062. In addition, the “normalized RNA/DNA level without ligand (log10)” value in data set [2] came out at 2.06 ± 0.039.
The corresponding values for GCUGUCACCGGUGUAUUACCCUAGUGGUCGACCGGUCUGAUGAGUCUUUCUUAAGACGAAACAGC are 1.95 ± 0.014 and 1.883 ± 0.018.
The like results for GCUGUCACCGGUGUAUUACCCUAGUGGUCGACCGGUCUGAUGAGUCUUUGACCAGACGAAACAGC were, in that order, 1.96 ± 0.049 and 1.987 ± 0.011.
On to GCUGUCACCGGUGUAUUACCCUAGUGGUCGACCGGUCUGAUGAGUCUUUGACUAGACGAAACAGC, for which the “normalized RNA/DNA level with ligand (log10)” value in data set [1] was 1.95 ± 0.077. Also, the “normalized RNA/DNA level without ligand (log10)” value in data set [2] came to 1.9 ± 0.042.
As for GCUGUCACCGGUGUAUUACCCUAGUGGUCGACCGGUCUGAUGAGUCUCUGAGCAGACGAAACAGC, in data set [1], the “normalized RNA/DNA level with ligand (log10)” value was 1.947 ± 0.0077. Besides, the “normalized RNA/DNA level without ligand (log10)” value in data set [2] came out at 1.79 ± 0.065.
The like results for GCUGUCACCGGUGUAUUACCCUAGUGGUCGACCGGUCUGAUGAGUCUAUCUUUAGACGAAACAGC were, in that order, 1.99 ± 0.024 and 1.91 ± 0.046.
The corresponding values for GCUGUCACCGGUGUAUUACCCUAGUGGUCGACCGGUCUGAUGAGUCUAUCUUCAGACGAAACAGC are 2.02 ± 0.031 and 2.006 ± 0.0047.
The corresponding values for GCUGUCACCGGUGUAUUACCCUAGUGGUCGACCGGUCUGAUGAGUCUAUCUUAAGACGAAACAGC are 1.916 ± 0.012 and 1.827 ± 0.011.
Turning to GCUGUCACCGGUGUAUUACCCUAGUGGUCGACCGGUCUGAUGAGUCUGUCUUCAGACGAAACAGC, the “normalized RNA/DNA level with ligand (log10)” value in data set [1] was determined as 1.99 ± 0.042. For the same variant, the “normalized RNA/DNA level without ligand (log10)” value in data set [2] turned out to be 1.9928 ± 0.0007.
GCUGUCACCGGUGUAUUACCCUAGUGGUCGACCGGUCUGAUGAGUCUGUCUUUAGACGAAACAGC: the “normalized RNA/DNA level with ligand (log10)” value in data set [1] is 1.946 ± 0.003. The “normalized RNA/DNA level without ligand (log10)” value in data set [2] stood at 1.885 ± 0.0085.
